Experimental data reported in patent US20220064303A1 (GIGAGEN, published 2022).

Columns and labels:
[1] = biological target: CTLA-4 on CTLA-4 effector cells (CTLA-4 Blockade Bioassay, Promega) (UniProt P16410 36-223, limits assumed); experiment: cell-based or functional assay
[2] = biological target: T1, Cyno CTLA4 (cyno, UniProt G7PL88 36-161); experiment: BLI (Octet Red96), mAb on AHC biosensor, antigen as analyte
T1 construct: Soluble antigen used as analyte in BLI
Method: The binding specificity and affinity of each full-length antibody towards CTLA-4 were determined using biolayer interferometry (BLI) and/or surface plasmon resonance (SPR). Anti-cyno CTLA-4 and anti-mouse CTLA-4 affinities were tested using ForteBio (BLI). Anti-human CTLA-4 affinities were measured using Carterra (SPR).
For BLI, antibodies were loaded onto an Anti-Human IgG Fc (AHC) biosensor using the Octet Red96 system (ForteBio). Loaded biosensors were dipped into antigen dilutions beginning at 300 nM, with 6 serial dilutions at 1:3. Kinetic analysis was performed using a 1:1 binding model and global fitting.

CTLA-4 on CTLA-4 effector cells (CTLA-4 Blockade Bioassay, Promega), sequence (P16410 36-223 limits assumed): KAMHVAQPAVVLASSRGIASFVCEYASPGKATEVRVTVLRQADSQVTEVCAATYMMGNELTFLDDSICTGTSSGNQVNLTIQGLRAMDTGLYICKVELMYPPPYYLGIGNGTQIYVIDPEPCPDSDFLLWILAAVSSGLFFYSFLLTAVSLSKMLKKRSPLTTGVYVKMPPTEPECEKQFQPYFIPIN
T1 sequence (G7PL88 entry or part of it): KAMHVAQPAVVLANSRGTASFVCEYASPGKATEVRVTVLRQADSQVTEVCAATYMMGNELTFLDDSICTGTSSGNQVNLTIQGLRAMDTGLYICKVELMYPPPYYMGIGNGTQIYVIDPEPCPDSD

B1: A23 (antibody, V domains shown)
VH: QVQLVQSGAEVKKPGASVKVSCKASGYTFTSYGISWVRQAPGQGLEWMGWISAYNGNTYYAQKFQGRVTMTTDTSTSTAYVELRSLRSDDTAVYYCARVTGRDAFDIWGQGTMVTVSS
VL: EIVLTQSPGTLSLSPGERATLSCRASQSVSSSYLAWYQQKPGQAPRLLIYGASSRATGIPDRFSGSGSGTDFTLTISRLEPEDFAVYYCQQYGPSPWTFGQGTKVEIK
[1]
  Promega assay % inhibition: 0%

B2: Ipilimumab (antibody, V domains shown)
VH: QVQLVESGGGVVQPGRSLRLSCAASGFTFSSYTMHWVRQAPGKGLEWVTFISYDGNNKYYADSVKGRFTISRDNSKNTLYLQMNSLRAEDTAIYYCARTGWLGPFDYWGQGTLVTVSS
VL: not shown
[2]
  Kd: 1.3 nM

B3: A28 (antibody, V domains shown)
VH: QVQLVESGGGVVQPGRSLGLSCAASGFTFSTYGMHWVRQAPGKGLEWVAVTLYDGSNKYYADSVKGRFTISRDNSKNTLYLQMNSLRAEDTAVYYCARASLTGSFDYWGQGTLVTVSS
VL: not shown
[1]
  Promega assay % inhibition: 0%
